Reference: patent US20210032353A1 (NATIONAL HEALTH RESEARCH INSTITUTES, published 2021)

T1: R3-IgD7 (human, UniProt P35916)
T1 construct: recombinant fragment; also called immunoglobin-like domain 7 of VEGFR3
T1 sequence (receptor fragment, looked up): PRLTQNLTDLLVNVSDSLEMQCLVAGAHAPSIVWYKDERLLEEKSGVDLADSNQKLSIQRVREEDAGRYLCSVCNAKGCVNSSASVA

T2: VEGFR3 IgD3-4 (UniProt P35916 219-415, limits assumed)
T2 construct: domain: IgD3-4; also called VEGFR3-ED Ig D3-4-myc; not shown: myc tag (pCMV6-XL6-myc vector)
T2 sequence (looked up): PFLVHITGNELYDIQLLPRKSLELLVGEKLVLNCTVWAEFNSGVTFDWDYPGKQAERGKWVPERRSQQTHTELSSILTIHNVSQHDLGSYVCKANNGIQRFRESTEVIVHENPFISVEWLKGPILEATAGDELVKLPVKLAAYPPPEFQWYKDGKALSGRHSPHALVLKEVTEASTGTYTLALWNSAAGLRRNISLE


Experiments:
R3-IgD7 = molecular target: T1, R3-IgD7; assay: cell-based competitive ELISA: R2C7-1 absorbed with the soluble domain, then bound to 293T/VEGFR3 cells, OD405
Description: (§1) Panel A, Cell-based competitive. ELISA. HEK293T cells expressing VEGFR3 (293T/VEGFR3) were coated in 96-well plates. The optimal concentrations of R2C7-1 and R2C9-11 mAbs were determined as described previously (data now shown). The optimal concentrations of R2C7-1 and R2C9-11 mAbs were absorbed with the designed doses of the individual immunoglobin-like domains of VEGFR3 (R3-IgDs) antigens, as indicated. The bound antibodies were immune-probed with secondary antibody conjugated with HRP, visualized by addition of ABTS, and measured at OD₄₀₅ using a microplate reader (SpectraMax). Data are represented as means±S.D. of percentage of isotype control (CTL) in triplicate. The epitope locations of R2C7-1 and R2C9-11 on the VEGFR3 antigen are indicated by the black lines spanning IgD6 in the schematics. Panel B, Native gel electrophoresis. The whole extracellular domain (R3-IgD1-7), domain 3-4 (R3-IgD3-4) and domain 6-7 (R3-IgD6-7) were constructed, expressed in the E. coli, and purified using the anti-Myc affinity purification system. The purity and molecular weight of each recombinant protein were visualized with a standard Western blot using anti-Myc antibody as probe (left). The binding of R2C7-1 and R2C9-11 to the VEGFR3 truncated antigens was evaluated with native gel electrophoresis to confirm the epitopes of R2C7-1 and R2C9-11 mAbs (middle and right, respectively).
The same methodology was adopted to define the epitopes of the antibodies on VEGFR3. To determine the optimal concentrations of the antibodies for VEGFR3, HEK293T/VEGFR3 transfectants were used as targets (data not shown). Subsequently, the antibodies with optimal concentrations were absorbed with individual recombinant extracellular domains of VEGFR3 (R3-IgDs) for competing the binding epitopes. Similarly, their major epitopes were both located in IgD6, but not in IgD7, of VEGFR3. To conform this finding, Western blotting analysis of different recombinant IgD proteins was carried out using native gel electrophoresis.

VEGFR2 (KDR)-IgD 6-7 = molecular target: T3, VEGFR2 (KDR)-IgD 6-7 (UniProt P35968 551-753); assay: Biacore; antibody as flow analyte, KDR-IgD6-7 as ligand
T3 construct: domain: IgD6-7; GST-tagged recombinant protein from E. coli by the methods; also called recombinant IgD6-7 of VEGFR2; VEGFR2-ED Ig D6-7; not shown: GST tag from the pGEX-4T-1 vector
T3 sequence (P35968 551-753): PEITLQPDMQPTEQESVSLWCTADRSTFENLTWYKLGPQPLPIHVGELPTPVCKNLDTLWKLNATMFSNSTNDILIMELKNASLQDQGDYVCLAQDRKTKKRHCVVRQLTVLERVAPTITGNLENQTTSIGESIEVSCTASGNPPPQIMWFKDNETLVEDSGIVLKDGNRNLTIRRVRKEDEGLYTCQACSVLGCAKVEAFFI

VEGFR3 IgD3-4 = molecular target: T2, VEGFR3 IgD3-4; assay: native PAGE of the purified myc-tagged fragment, blot probed with R2C9-11
Description: as §1, with “FIG. 11 is a set of graphs showing determination of the binding epitopes of R2C7-1 and R2C9-11 antibodies on VEGFR3 antigen. Panel A,” for “Panel A,”, “purification system. […] The binding” for “purification system. The purity and molecular weight of each recombinant protein were visualized with a standard Western blot using anti-Myc antibody as probe (left). The binding”, “right, respectively). […]” for “right, respectively).”

koff (VEGFR2 (KDR)-IgD 6-7) [s⁻¹] | binding result (VEGFR3 IgD3-4) | Binder | binding result (R3-IgD7)
1.1e-05 |  | R2C7-1 monoclonal antibody (antibody, V domains shown, Mouse monoclonal antibody purified from hybridoma supernatant; An IgG2a isotype antibody served as its control; also called R2C7-1 mAb) VH: EVQLQQSGPELVKPGASVKISCKASGYSFTDYFINWVIQRHGKSLEWVGRINPYNGGSFYNQKFKDKATLTVDKSSNIAHMELRSLASEDSAIYYCARSGGNGYDYWGQGTTLTVSS VL: DIVMTQAAPSVPVIPGESVSISCRSSKSLLHSNGNTYLYWFLQRPGQSPQLLIYRMSNLASGVPDRFSGSGSGTAFTLRISRVEAEDVGVYYCMQHLEYPYTFGGGTKVEIK | no binding (tested: 10 (unit not printed on the sheet))
 | no binding | R2C9-11 monoclonal antibody (antibody, V domains shown, Mouse monoclonal antibody purified from hybridoma supernatant; An IgG2a isotype antibody served as its control; also called R2C9-11 mAb) VH: QVQLQQPGAELVKPGASVKLSCKASGYTFTSYWMHWVKQRPGQGLEWIGEINPSNGRTNYNEKFKSKATLTVDKSSSTAYMQLSSLTSEDSAVYYCANLYFDVWGAGTTVTVSS VL: DIVMTQSPSSLSVSAGEKVTMSCKSSQNLLNSGNQKYYLAWYQQKPGQPPKLLIYGASIRESGVPDRFIGSGSGTDFTLTISSVQAEDLAVYFCQSDHSYPYTFGGGTKLEIK | 
